Experiment: soluble fraction after stress (log2 fold change); higher = more stays soluble; pooled small domains, quantitative proteomics
Settings: stress: 75 degC
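Further: 20 min heating vs room temperature control held 20 min.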

| Sequence | soluble fraction (log2) |
| --- | --- |
| HMVTVNAFGKSGPEPAAMTKEALAKGADEVRVIVDSPTAAASVRDFLIGAGLRVQLQDDEGQLIVVGEKK | 0.318 |
| HMVVDEQRIQTLVSAAEQNSSDPVPRVTLGNLYFDAEQFEEAVKWYEQALALDPRNVNVSTDLGVGYYY | 0.113 |
| HMVVKLTQEQDRFIKTFNDKSLAFYYISSWGWGSFLRNGIGGVYEGDKTPFTLDEKEKMLNAIINGYEVI | -2.02 |
| HMVVKSPLEMAFDKFREMRKKIRKPMTERAEELIWKELSKLAGEDSDLKIEILEQSIRNGWQDVYAVK | -0.623 |
| HMVVLPGEVVALKIIQTGSSKDQGVGYLEDGTMVVVDGAKNSIGKTIEIQISRSHQTVAGRMLFGIAMS | -2.72 |
| HMVVQTELVRISITSLSGEDIRRLVQIKVVGATIEPFEGGGFLITGTAEQIAKAKDFLNSMSTEF | -2.42 |
| HMVVRKHDRYYTPEHRKLLMDTYERTNKYPTKQDMSELAKIIGVLPIKILWWYTHRRRQDRRKGEESSSP | 0.0496 |
| HMVVTMEKIVVNDGGIRIDTYLADKLNISRSKVAKMLENNILVNNVKVKPSYKVTNNDIIEVEEYV | -1.86 |
| HMVVVLPGETIKIDLIREGKDKQALGYLEDGTMIVVDNAKHLIGKNVEIEIDNVLPKEAGRVIFASLHGA | -0.388 |
| HMVVVMNADAEADEIKRVKWNLEQMLFRTQVIYGVKRIVIGAIGDQREVDLSEIEQMPKVDKIVRISK | -2.24 |
| HMVVVPDVKGLKIEEAAEFFKNNNLHYNVIDSVFSKDVEPGAIVELSPLAGSKVKEGRIVFITVNALTS | -1.12 |
| HMVVVVELTENEKAVQDVLTKNEGSLEISDLKTKLELSGKQWDKALKGLAKHGITQVAKVDGVVTVSL | -0.381 |
| HMVWMIEKDQSVILVNKLERIQVEALGKALENGNFGDRIRVINNKSGQKLLGIVESEKKIQIISKI | -2.92 |
| HMVYLPGEEIPLKIIQEGKESGQGVGYLEDGTMVVVENGRRYLNQEVLVQVTKILQTNAGRLIFAVP | -2.6 |
| HMVYLPSSIKNIPTKYGEMMVANFKMDELQANSKNGWVSMVISERREPSEKGATHYAYVNTY | 0.484 |
| HMVYNQYILTQSVRLREEPGISGRVIRLLETGTTVELVDTVVVNKDDYDWVWVKLSDGAVGWIIKSAIDI | -1.57 |
| HMWDEMKDQKLVEALLLLREDERKLIYQHVFEERTFDDISRINGLPPYKVKGIYYYAIRKIRKWMG | -2.26 |
| HMWGQDVLFTIDKKEFKGKLLEQSDKHTTFLPDGQKTPQKIPNRLIKEIHLGSNKIIDFGNDFLI | -0.19 |
| HMWPDDAIALPTRDGQDVGGAQERTMLAFASGAAGIRTVEEINPDGSITRLRTRYGWPTFETEGARTAAAE | -0.0272 |
| HMWTIDPLDWKTENADQIVEKVMSEAKENAIILLHDRYEASVEAALRIVDLLKEQGYTFVTADKLV | -0.154 |
| HMWTKKELWNAIAKLPKKQRTVVMMRIAQNLPYKDISEITGMSIGSAKVNYHHAVNSLKQWLS | -0.746 |
| HMWTPLVVAVLIGGTHRFGELRAAVGGITPKVLTETLRSMERDGLVVREQTPGVPPRVDYALTPLGA | -0.493 |

| Sequence | soluble fraction (log2) |
| --- | --- |
| HMYAGTWISESGQWKYRNDDGSFAKGWFQDLDSRWYYFDANGHMLSDTLTPDGYRLGEDGAWVND | 0.0742 |
| HMYDESVFTGEYHYYYEKLSDDDKLIYRQIYAMMQKRMDGISLNTTDTDNVSRIQQFVLLDNPQF | -2.61 |
| HMYDKKVFRLLFILNQLDSRKKVSTGELAKEFNVSPRTVQRDIVLLNTTGFPIISLEKGYHSFMEGFSLK | -1.19 |
| HMYDPVNEIGRVLKKIRQERSLTLDNVAEITGVSKTMLGQIERGVSVPTISVLWKIAKGLQVSLSTLLNE | -3.24 |
| HMYEGLPVTLIIDGRVIEANLAKANRDMAWLERELANSGVRSHHDVFFATLDSRGQLYYQVKN | -1.04 |
| HMYELDIYPNPAIDKINVLLPSSTTLPVKVEIYDIMGKKVNSLLTTKKAFTIETDQFEKGIYFVKA | 0.331 |
| HMYELREGDVVSVRILSQTGQNSYIASFAGGRFSVTSERAFAPGTVFSASVSLKDGTLVLSPL | -3.6 |
| HMYFEDEELDRFVGTPAGAYTEEDVEEFRDVLLSLDIEEVPSWVRSLQLRGIDFPETLRPELYLL | -3.01 |
| HMYGQEVKVLGLFGDRAFIKVDEKSAVIRIGQSHQNVQLKSISNQKAILLVDNKDIALGLGDSYQSA | -1.69 |
| HMYGVAEFDEKGNVLSIEEKPVQPKSNYAVVGLYFYPNKVVGVASGIKPSARGELEITTVNQTFLRDEELK | 0.204 |
| HMYHNKFADLAGFIAFNEKNEEIFTFGKYKGQNVKEVFQRDIGYYGWLQNADFPLYTKKVFTAIQLRSR | -2.44 |
| HMYHPGFEALREVARQGSFIKAARALGISGPAVSKQIKSLEARLNLVLLHRTTRAVTLTEAGQRLTEILD | -2.14 |
| HMYIDNVTIYDVGFNERIVHALERAGVKNLYDLSQMNFYQLQRIRNLGASSLEKVINRIHSYGILLKNES | -0.902 |
| HMYIEKTAYINDTAVNVRKSATTDSDVIKVLALNTEITIIGEENDWYKVKSGNDIGYIAKRLVSDQKKE | -0.187 |
| HMYIKYETVLQNITERIAALRKNGTLVLDGERTLAAEFDASRGTIRKAMRQLEENGTILREGYVTRILPE | -1.95 |
| HMYIVVPDLSKKDINEVANILAAQSLRFQVIDSANFRSDFPKNAVISQKPLAGSEVKVNKKIYLQLNPS | -0.43 |
| HMYLEARVKSTTPILSKPNELGKSLGKLYTNDFVALVSLHKNGLDSYYRTANGGYINAADVVIDRDV | -1.49 |
| HMYLPLREVVFNALRTAIIHGEFKPGERLMEMHLAKSLGVSRTPVREAMRMLELEGLVVMIPKKGAEVAR | -2.93 |
| HMYMKMNDRIRSRRKELKMTQSVLAKLVGVNRVTITGWESGDYKPGGENLQALAAALEKTPQWLLDGKD | -2.82 |
| HMYMTTADADMWKYVNTGRYNNDIQLMEEYKNRSMDSFEVITPEQQRKYNKAAMNLNSYYAWADPSYKPNP | -0.483 |
| HMYMWQVEDLLRANELDIENIKKTIIDHYQLDDAQKSELTRWYEDLINMMRLEGVTKEGHLQINK | -2.02 |
| HMYNSYALTARELELVNYVLKGNSRREMAEDSGLKENTVASYMKRLYRKIKVHSRKELKELFM | -0.151 |

| Sequence | soluble fraction (log2) |
| --- | --- |
| HMYPDNEQTLSKLAFEFFKKRNIPISQSNINQIVTKSLGDRENLYNELLKIENFSTSGKKLTDNVIKKLIN | -0.0858 |
| HMYPFSEETLKEKIREYLKTNRSINRRVLEREFYIRKQTALNWLNRLVDSGFLIKEGVRNSPVYFLAE | -0.884 |
| HMYPMQNYSTIIGVIELRQQSVGYATTQKRYGIGSSTVTLIMKRFKELGLTLEELRAMPPKAVEVAFYPPE | -1.69 |
| HMYPNEFPRKVMSVFESSGLEMFRTIEMLLAIPEYETPLPYGSGVSRSDIFVLAKSAGNLVSITV | -0.117 |
| HMYQFFVDPGQIQGKRVTITGSDVNHIKNVLRMRIGEEIAVSNGKDGLEYRFGIDEILEDEVIGTLRFVKE | -1.61 |
| HMYRIGELAKLADVTPDTIRYYEKQQMMDHDVRTEGGFRLYSDNDLQRLKFIRYARQLGFTLEAIRELLSI | -2.27 |
| HMYRWSEEIFEKLRSDIMAALDLSREQNDEEIYRFIETEVEEYSQNNLLTLKEREQLEHLLFNSL | -1.44 |
| HMYSKVSFTVSVGMTSERVSASLKALGIIDDSAKFNRYLVSNGYSTRIKVGTVELQAGQSYAEIASKLV | -3.88 |
| HMYSLSELERIKNFLTGYMSDYSIMMLDANEITNQVDISLKDYSDDNIESIKAAVLSHGGKTDYLNFIDDS | -0.926 |
| HMYSQEEKRYMEIMEIKPQELSAENLKKQYKKLVKKYHPDLHQDDKQAAEEKFKQLTNAYQVLMRRF | -0.474 |
| HMYSSASKEEIDQLMKRLILNLDAKGYFWPQDKEKSLKLYLHNLFSKLPLNSSDIRFLHGLIRALSEE | -1.3 |
| HMYSSIIGIAFTRAENKPAAPTGGSYSNPHPVDGNWKAAPYDGDGNLWYSIRHFNENVDIQDREWSDPTLG | -0.238 |
| HMYSYSGSVINTYKVPVSVVLKDANGSAIASWDLPVDQSLGISAKDIATSSGTIEITGDGVNETKTVTFTK | -0.12 |
| HMYTGSEGMAGLEGRAVTEVGPEAGTVLVKGEYWQARSDEPIATDRKIRVIRLEGLRLRVAEIHPEG | -0.45 |
| HMYTPDYLSDLMVRMAHHSTAIEGNTLTQGETKSVLVDGYIPRAMDMRELNEVLNYKAFMTFLVE | -0.0939 |
| HMYTTHTQSELNEAARFNGRATYQKGIYYNESKKEHFKVVNGKYQALPNVKQVNGDSWIDKTGITHKG | -0.324 |
| HMYTVQQLARLAGITPRTLRHYDAIGLLKPTRVGENGYRYYGSEALLRLQSILLYRELDMPLEDIRRVLDS | -3.5 |
| HMYVPEVPVPDLLGRSEEEAKNLIEDLGLVFKVSKREYSKEYDEGHVMEQSVDEGAKVKENYPVEVVISR | 0.181 |
| HMYYDDEELDDYRGKASDAYTAAEVEQFEEVLTTMRPEEVHGWLRSLQLRGVALPDALKDEAYMIVSEQAE | -0.0106 |
| HMYYIITNGKYWVIENPIRPGEYMESTKSSNAKQFTFKQAKNLLNARSKKLGWIRNGYSMVGED | -2.46 |

Reference: the domain aggregation screens of Martell et al. (2025)
